# From patent US20130157959
# Molecular target: in vitro translated 35S-labelled p53 (wild-type) (UniProt P04637)
substance,measurement,value
GST-Hades RING-mutant peptide (C302S/C305S),"in vitro ubiquitination of p53 with E1, E2 (UbcH5c) and His-ubiquitin, anti-p53 immunoblot",The p53 ubiquitination was only induce by Hades
